Laboratory results reported in patent US20120231006A1 (Amgen, published 2012).

How the values were obtained:
rat Orai1 = molecular target: T1, rat Orai1 (rat, UniProt Q5M848 1-304); experiment: FACS, 293EBNA transfectants with STIM1, thapsigargin
T1 construct: co-expressed with rat STIM1; also called rOrai1
Protocol: (§1) FIG. 13A-B illustrates the results of FACS analysis showing binding to human Orai1 expressed on the surface of HEK-293-EBNA cells that were treated with 2 μM Thapsigargin. HEK-293-EBNA cells were transiently transfected with human Orai1 and human STIM1, mouse Orai1 and mouse STIM1, rat Orai1 and rat STIM1 and control empty vector. Transfected cells were stained first with recombinant monoclonal antibodies then counter-stained with a secondary phycoerythrin-labeled Gt anti-Hu IgG F(ab′)₂ or Gt anti-Mu IgG F(ab′)₂ antibody fragment, as appropriate, and visualized using FACS.
(§2) FACS binding analysis. Transfected 293EBNA cells transiently expressed hOrai1, human Orai2, or human Orai3 (results of binding comparison in FIG. 11A-B), or hOrai1(S218G) (results of binding comparison in FIG. 12A-B); or hOrai1 and hSTIM1; mOrai1 and mouse STIM1; or rat Orai1 and rat STIM1 (results of binding comparison in FIG. 13). The transfected cells were harvested at 48 hours post-transfection. Cells transfected with pcDNA3.1 were used as negative controls. Cells were washed once with ice-cold 1×PBS, resuspended in ice-cold FACS buffer (1×D-PBS+2% goat serum), and 2×10⁵ cells in […] were stained per antibody combination. All antibody incubation steps were performed on ice for 1 hour. […] Next, the unlabelled antibody was detected using goat F(ab′)₂ anti-mouse or anti-human IgG-phycoerythrin (IgG-PE), followed by a wash with 200 μL of ice-cold FACS buffer before flow cytometry analysis. Unstained cells and cells stained with detecting antibodies were used as negative controls. The values of relative level of fluorescence were calculated using FCS Express (De Novo Software) and mean values were calculated using log-transformed data (geometric mean). Purified mAbs were assessed by FACS assay for their ability to specifically bind human Orai1, Orai2 and Orai3 proteins expressed on HEK-293 cells.

mouse Orai1 = molecular target: T2, mouse Orai1 (mouse, UniProt Q8BWG9 1-304); experiment: as above
T2 construct: co-expressed with mouse STIM1; also called mOrai1
Protocol: as §1, §2

human Orai1 = molecular target: T3, human Orai1 (human, UniProt Q96D31 1-301); experiment: FACS Kd, AM1-CHO/hOrai1/hSTIM1-YFP cells
T3 construct: on AM1-CHO/hOrai1/hSTIM1-YFP, AM1/hOrai1, HEK-293 transfectants, endogenous on Jurkat and blood cells; in Westerns from cell lysates; also called hOrai1; CRACM1
Protocol: The equilibrium plates were centrifuged at 500 g for 3 minutes and cell pellets were washed twice with 200 μL of ice cold FACS buffer (1×D-PBS+2% FBS). The cells were then incubated with a secondary antibody, goat anti-human Fc Cy5 at 5 μg/mL and 100 μL per well for 1 h on ice in the dark. Following the incubation, the cells were washed twice with 200 μL of ice-cold FACS buffer before flow cytometry analysis. The GeoMean values gated on live cell population measure the bound [Ab]. The inverse of the GeoMean values that reflects theoretical free [Ag] in the equilibrium solution was then calculated. The inverse values of the GeoMean read were used in KinExA® Pro software for analysis and Kd calculation for each antibody. The free [Ag] measure was plotted against the starting concentration of titrating component and from these plots at two different cell concentrations the Kd was obtained from curve fitting using n-curve analysis in KinExA Pro software. […] Shown in Table 14 (below) are the equilibrium dissociation constant (Kd) values of invented mAbs determined by FACS Kd measurement.

human Orai2 = molecular target: T4, human Orai2 (human, UniProt Q96SN7 1-254); experiment: FACS, 293EBNA transfectants
T4 construct: also called hOrai2
Protocol: (§3) Purified monoclonal antibodies from hybridoma supernantants of the subclones derived from initial hits were assessed for binding to human Orai1, Orai2 and Orai3 expressed on HEK-293-EBNA cells along with vector transfected control parental cells. Cells stained with or without primary mAbs were counter-stained with a secondary phycoerythrin-labeled goat (“Gt”) anti-human (“Hu”) IgG F(ab′)₂ antibody fragment and visualized using FACS.
as §2

human Orai3 = human Orai3 (human, UniProt Q9BRQ5 1-295); experiment: FACS, 293EBNA transfectants
Protocol: as §3, §2

[1] = molecular target: T5, mOrai1-hOrai1 ECL2 (VIV) protein (human/mouse chimera, UniProt Q8BWG9 1-304 (mouse entry)); experiment: FACS, 293EBNA, RFI-POC grade; parameters: concentration or dose not given beside the values
T5 construct: also called Ch
Description: (§4) FIG. 16A-D illustrates the results of FACS analysis showing binding to the indicated mOrai1-hOrai1 ECL2 chimeric mutants expressed on the surface of HEK-293-EBNA cells. Transfected cells were stained first with recombinant monoclonal antibodies then counter-stained with a secondary phycoerythrin-labeled goat (“Gt”) anti-human (“Hu”) IgG F(ab′)₂ antibody fragment and visualized using FACS. In FIG. 16B and FIG. 16D, The values of Relative Fluorescence Intensity as Percent of Control (RFI-POC) are calculated from the relative fluorescence intensity geometric mean (Geo Mean). The geometric mean is an average calculated by multiplying a series of numbers and taking the nth root where n is the number of numbers in the series. It is a statistical average of a set of transformed numbers often used to represent a central tendency in a highly variable data set that minimizes the effects of extreme values.
(§5) Table 11A and Table 11B feature a schematic representation of the POC data from FIG. 16B and FIG. 16D, respectively, where the binding results are recorded as (+++) denoting binding POC from 40% to 100%, (++) for POC of 5% to less than 40%, (+) for POC from 1% to less than 5% and (−) as lack of binding with POC less than 1%.

[2] = molecular target: T6, mOrai1-hOrai1 ECL2 (HSD) protein (human/mouse chimera, UniProt Q8BWG9 1-304 (mouse entry)); experiment: FACS, 293EBNA, RFI-POC grade; parameters: concentration or dose not given beside the values
T6 construct: also called Ch
Description: as §4, §5

[3] = molecular target: T7, mOrai1-hOrai1 ECL2 chimeric protein (human/mouse chimera, UniProt Q8BWG9 1-304 (mouse entry)); experiment: FACS, 293EBNA, RFI-POC grade; parameters: concentration or dose not given beside the values
T7 construct: mouse Orai1 with human ECL2; also called Ch
Description: as §4, §5

T1 sequence (Q5M848 whole entry): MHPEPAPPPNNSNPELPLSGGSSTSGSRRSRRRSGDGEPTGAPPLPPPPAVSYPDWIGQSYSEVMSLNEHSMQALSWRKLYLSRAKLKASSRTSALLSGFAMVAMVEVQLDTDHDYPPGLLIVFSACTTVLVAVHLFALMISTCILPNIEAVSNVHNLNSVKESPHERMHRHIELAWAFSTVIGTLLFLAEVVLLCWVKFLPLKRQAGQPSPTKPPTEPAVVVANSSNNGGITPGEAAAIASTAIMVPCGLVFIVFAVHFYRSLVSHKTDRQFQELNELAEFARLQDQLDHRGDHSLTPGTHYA
T3 sequence (Q96D31 whole entry): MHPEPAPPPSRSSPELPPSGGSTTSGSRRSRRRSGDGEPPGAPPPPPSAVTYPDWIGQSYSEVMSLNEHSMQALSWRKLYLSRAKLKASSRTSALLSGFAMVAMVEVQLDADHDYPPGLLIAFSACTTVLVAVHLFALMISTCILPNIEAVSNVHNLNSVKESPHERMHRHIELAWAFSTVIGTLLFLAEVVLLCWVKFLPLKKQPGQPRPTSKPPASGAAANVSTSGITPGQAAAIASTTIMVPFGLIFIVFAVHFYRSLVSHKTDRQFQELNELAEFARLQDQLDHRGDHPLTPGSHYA
T7 sequence (Q8BWG9 other isoform, or with tags, fused parts or gaps mutant): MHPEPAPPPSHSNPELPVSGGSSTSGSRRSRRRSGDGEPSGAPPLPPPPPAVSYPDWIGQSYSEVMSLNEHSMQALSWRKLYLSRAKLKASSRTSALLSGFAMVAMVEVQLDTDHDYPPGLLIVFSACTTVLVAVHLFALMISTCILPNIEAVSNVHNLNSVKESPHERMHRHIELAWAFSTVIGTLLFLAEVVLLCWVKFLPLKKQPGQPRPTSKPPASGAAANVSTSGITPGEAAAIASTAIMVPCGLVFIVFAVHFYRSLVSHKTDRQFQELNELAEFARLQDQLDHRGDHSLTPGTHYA
T2 sequence (Q8BWG9 whole entry): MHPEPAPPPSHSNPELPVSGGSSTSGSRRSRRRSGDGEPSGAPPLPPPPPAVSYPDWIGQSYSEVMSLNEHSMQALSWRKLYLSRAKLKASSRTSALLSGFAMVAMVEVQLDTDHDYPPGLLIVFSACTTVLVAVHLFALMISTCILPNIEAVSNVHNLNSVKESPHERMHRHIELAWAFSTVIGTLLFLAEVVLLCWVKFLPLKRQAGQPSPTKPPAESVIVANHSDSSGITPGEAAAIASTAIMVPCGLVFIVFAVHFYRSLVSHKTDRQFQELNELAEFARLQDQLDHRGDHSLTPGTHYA
T5 sequence (Q8BWG9 other isoform, or with tags, fused parts or gaps): as the sequence (Q8BWG9 other isoform, or with tags, fused parts or gaps mutant) above, with G221V, A222I, A223V counted along it
T4 sequence (Q96SN7 whole entry): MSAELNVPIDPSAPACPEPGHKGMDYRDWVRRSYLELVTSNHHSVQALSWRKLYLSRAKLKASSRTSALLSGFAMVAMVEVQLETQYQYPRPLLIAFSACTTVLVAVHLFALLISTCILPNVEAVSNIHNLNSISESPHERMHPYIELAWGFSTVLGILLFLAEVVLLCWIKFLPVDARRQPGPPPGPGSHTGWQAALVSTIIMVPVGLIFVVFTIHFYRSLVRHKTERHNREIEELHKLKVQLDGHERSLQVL
T6 sequence (Q8BWG9 other isoform, or with tags, fused parts or gaps): as the sequence (Q8BWG9 other isoform, or with tags, fused parts or gaps mutant) above, with V226H, T228D counted along it

Row | binding result (rat Orai1) | binding result (mouse Orai1) | Kd (human Orai1) [pM] | binding result (human Orai2) | binding result (human Orai3) | POC (percent of control, FACS Geo Mean relative to binding to Ch. 1) [1] [%] | POC (percent of control, FACS Geo Mean relative to binding to Ch. 1) [2] [%] | POC (percent of control, FACS Geo Mean relative to binding to Ch. 1) [3] [%] | Binder
1 | no binding (tested: 1 µg) | no binding (tested: 1 µg) | 443 | no binding (tested: 1 µg) | no binding (tested: 1 µg) | 40 to 100 | 40 to 100 | 40 to 100 | mAb 5B1.1 (antibody, human IgG2, lambda, V domains shown, fully human IgG2 lambda, Campaign 2; also called mAb 5Bl1.1) VH: QVQLVQSGAEVKKPGASVKVSCKASGYTFTDYYINWVRQAPGQGLEWMGWINPNSGGSSYAQKFQGRVTMTRDTSISTAHMELIRLRSDDTAVYYCARERGGIEDWFDPWGQGTLVTVSS VL: QSVLTQPPSVSGAPGQRVTISCTGSSSNIGAGYDVHWYQQLPGTAPKLLIYGNSNRPSGVPDRFSGSKSGTSASLAITKFQAEDEAVYYCQSYGSGLSGVVFGGGTKLTVLG
2 | no binding (tested: 1 µg) | no binding (tested: 1 µg) | 767 | no binding (tested: 1 µg) | no binding (tested: 1 µg) | 40 to 100 | 40 to 100 | 40 to 100 | mAb 5F2.1 (antibody, human IgG2, lambda, V domains shown, fully human IgG2 lambda, Campaign 2) VH: QVQLVQSGAEVKKPGASVKVSCKASGYTFTDYYMNWVRQAPGQGLEWMGWINPNSGGTHYAQKFQGRVTMTRDTSISTAYMELSRLRSDDTAVYYCAREYGGYSDWFDPWGQGTLVTVSS VL: QSVLTQPPSVSGAPGQRVTISCTGSRSNIGAGYDVHWYQQLPRTAPKLLIYDNSNRPSGVPDRFSGSKSGSSASLAITGLQAEDEADYYCQSYDNSLSDSVLIGGGTKLTVLG

More lines, now with the values behind:

Row | Binder | binding result (rat Orai1) | binding result (mouse Orai1) | Kd (human Orai1) [pM] | binding result (human Orai2) | binding result (human Orai3) | POC (percent of control, FACS Geo Mean relative to binding to Ch. 1) [1] [%] | POC (percent of control, FACS Geo Mean relative to binding to Ch. 1) [2] [%] | POC (percent of control, FACS Geo Mean relative to binding to Ch. 1) [3] [%]
3 | mAb 5F7.1 (antibody, human IgG2, lambda, fully human IgG2 lambda, Campaign 2) heavy: QVQLVQSGAEVKKPGASVKVPCKASGYTFTDYYINWVRQAPGQGLEWMGWINPNNGGTNYAQKFQGRVTMTRDTSISTAYMELRRLRSDDTAVYYCARERGGYEDWFDPWGQGTLVTVSSASTKGPSVFPLAPCSRSTSESTAALGCLVKDYFPEPVTVSWNSGALTSGVHTFPAVLQSSGLYSLSSVVTVPSSNFGTQTYTCNVDHKPSNTKVDKTVERKCCVECPPCPAPPVAGPSVFLFPPKPKDTLMISRTPEVTCVVVDVSHEDPEVQFNWYVDGVEVHNAKTKPREEQFNSTFRVVSVLTVVHQDWLNGKEYKCKVSNKGLPAPIEKTISKTKGQPREPQVYTLPPSREEMTKNQVSLTCLVKGFYPSDIAVEWESNGQPENNYKTTPPMLDSDGSFFLYSKLTVDKSRWQQGNVFSCSVMHEALHNHYTQKSLSLSPGK light: QSVLTQPPSVSGAPGQRVTISCTGSSSNIGAGFDVHWYQQLPVTAPKLLIYGNRNRPSGVPARFSGSKSGTSASLAITGLQAEDEAVYYCQSYDSSLTVFGGGTKLTVLGQPKANPTVTLFPPSSEELQANKATLVCLISDFYPGAVTVAWKADGSPVKAGVETTKPSKQSNNKYAASSYLSLTPEQWKSHRSYSCQVTHEGSTVEKTVAPTECS | no binding (tested: 1 µg) | no binding (tested: 1 µg) | 185 | no binding (tested: 1 µg) | no binding (tested: 1 µg) | 40 to 100 | 40 to 100 | 40 to 100
4 | mAb 5A4.2 (antibody, human IgG2, lambda, V domains shown, fully human IgG2 lambda, Campaign 2) VH: QVQLVQSGAEVKKPGASVKVSCKASGYTFTDYYMNWVRQAPGQGLEWMGWINPNSGGTKYAQKFQGRVTMTRDTSIRTAYMELSRLRSDDTAVYYCSREYGGNSDWFDPWGQGTLVTVSS VL: QSVLTQPPSVSGAPGQRVTISCTGSSSNIGAGYDVHWYQQLPGTAPKLLIYGNSNRPSGVPDRFSGSKSGTSASLAITGLQAEDEADYYCQSYDNRLSDSVVIGGGTKLTVQG | no binding (tested: 1 µg) | no binding (tested: 1 µg) | 1200 | no binding (tested: 1 µg) | no binding (tested: 1 µg) | 40 to 100 | 40 to 100 | 40 to 100
